Test results taken from article doi:10.1101/2020.08.21.261974.

Target: BG505 SOSIP.664 native-like envelope gp140 trimer (HIV-1 (BG505))
Assay: cryo-EM structure

Which stoichiometry N (per BG505 trimer) does the source give for M48U1 peptide here?
Its stoichiometry N (per BG505 trimer) is 3.
